The EC50 is the midpoint of the concentration-response curve. One may read the Kd as the concentration at which binding is half-saturated. As a reminder, the koff is the rate constant with which the complex falls apart. In general, kon refers to the rate constant with which the complex forms.

The values below come from patent US20240383999A1 (University of Texas, published 2024).

Sequences and labels used below:
T1: Human recombinant CD5L protein (Sino Biological, Catalog Number 10791-H08H) (human, UniProt O43866 20-347)
T1 construct: Bought protein; also called human CD5L; CD5L-His; not shown: 6xHIS-tag
T1 sequence (looked up): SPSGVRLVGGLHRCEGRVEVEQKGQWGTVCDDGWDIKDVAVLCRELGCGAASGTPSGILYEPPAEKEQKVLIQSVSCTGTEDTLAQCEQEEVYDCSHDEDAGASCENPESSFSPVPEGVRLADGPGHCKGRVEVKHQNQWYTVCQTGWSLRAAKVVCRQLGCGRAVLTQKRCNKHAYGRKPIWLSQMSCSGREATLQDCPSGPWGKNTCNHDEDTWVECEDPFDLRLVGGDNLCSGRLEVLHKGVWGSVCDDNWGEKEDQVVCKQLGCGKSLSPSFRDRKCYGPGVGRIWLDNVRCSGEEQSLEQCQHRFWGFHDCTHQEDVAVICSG

B1: R-40 (antibody, V domains shown)
VH: QSVKESGGRLVKPDETLTITCTVSGIDLSRYSIQWVRQAPGGGLQWIGVMSIGSSAYYANWAKGRFTISKTSSTTVDLTMTSLTAADTATYFCARSNLYRGAFDPWGPGTLVTISS
VL: ELVMTQTPASVEAAVGGTVTIKCQSSESVYKNNYLSWYQLKPGQPPKLLFYSASTLASRVPSRFSGSGSGTQFTLTISDLECDDAATYYCAGYYGSSSVDRYTFGGGTEVEIK
B2: R-18 (antibody, V domains shown)
VH: QSVKESGGRLVTPGTPLTLTCTVSGFSLSNYAMSWVRQAPGKGLEWIGIIVTSGSTYYASWAKGRFTISKTSTTVDLKMTSLTAADTATYFCARHAYSIGSSLWGQGTLVTISS
VL: ELDLTQTPPSASEPVGGTVTIKCQASESISVRLAWYQQKPGQPPKLLIYKASNLPSGVPSRFKGSGSGTEFTLTISDLECDDAATYYCRNYYDISNNGAGFGGGTEVEIK
B3: H-447 (antibody, V domains shown)
VH: EVQLVQSGGGLVQPGGSLRLSCAASGFTVSSNYMSWVRQAPGKGLEWVSVIYSGGSTYYADSVKGRFTISRHNSKNTLYLQMNSLRAEDTAVYYCARESAVAGWGMDVWGKGTTVTVSS
VL: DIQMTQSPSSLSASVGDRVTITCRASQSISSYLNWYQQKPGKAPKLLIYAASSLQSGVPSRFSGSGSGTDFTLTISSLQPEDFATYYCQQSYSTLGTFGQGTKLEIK
B4: R-3 (antibody, V domains shown)
VH: QSLKESGGRLVKPDETLTITCTASGIDLTSGTVGWFRQAPGKGLEWIGIIRGSGSTYYATWAKGRFTISKTSTTVDLKLTSPTTEDTATYLCARAFPGYNTFFNFWGQGTLVTISS
VL: ELDLTQTPSSVEAAVGGTVTIKCQASESIGNALAWYQQKPGQPPKLLIWKASNLESGVPPRFKGSGSGTEFTLTISDLECADAATYYCQRYYFNGVSVEIVFGGGTEVVVKG
B5: R-34 (antibody, V domains shown)
VH: QSVKESGGRLVTPGTPLTLTCTVSGFSLSSSGMSWVRQAPGKGLEWIGLTFPSGSASYASWAKGRFTVSRTSTTVDLNLTSPTTEDTATYFCAHVGATTGRDFWGQGTLVTVSS
VL: ELVMTQTASSVSAAVGGTVTISCQSSQNIYNNRWSWYQQKPGQPPKLLIYQASTLASGVPSRFKGSGSGTQFTLTISGVQCDDAATYYCAGGYSGTIFTFGGGTELEIK
B6: R-13 (antibody, V domains shown)
VH: QSLEESGGRLVTPGTPLTLTCTVSGFSLSSYPMSWVRQAPGKGLEWIGIITSGGSIFYATWANGRFTISKTSTTVDLKITSPTTEDTATYFCARGYSSGTMMSSNLWGQGTLVTVSS
VL: ELVLTQTPASVSEPVGGTVTIKCQASESISTYLSWYQQKPGQRPKLLIYRASTLESGVPSRFKGSGSGTEYTLTISGVQCADAATYYCQQGYTYKNVDNAFGGGTEVVVK
B7: R-35 (antibody, V domains shown)
VH: AAVKESGGRLVTPGTPLTLTCTVSGIDLSDYYMTWVRQAPGKGLEYIGIIYASGNAYFASWAKGRFTISRTSSTTVDLNVASPTTEDTATYFCARNIGGSSNLWGQGTLVTVSS
VL: ELDMTQTPASVSEPVGGTVTIKCQASERIYNNLAWYQQKPGQPPKLLFYSASTLASGVPSRFKGSGSGTEFTLTISDLECADAAIYYCQCTGYGTTYGLVFGGGTEVEI
notes: also called anti-CD5L antibody R-35; CD5L antibody (R-35)
B8: R-45 (antibody, V domains shown)
VH: QSVKESGGRLVTPGTPLTLTCTVSGFSINDFHMCWVRQAPGKGLEYIGMIGTGGSAYYATWTKGRFTISRTSTTVDLKITSPTTEDTATYFCARRDWSDGGYSLLWGQGTLVTVSS
VL: ELDLTQTPASVSEPVGGTVTIKCQASQSIRTYLNWYQQKPGQPPKLLIYSASTLASGIPSRFKGSGSGTQFTLTISDLECADAATYYCQQGYYWSDVENTFGGGTEVEIN
B9: CD5L-35Hu-4 (antibody, V domains shown)
VH: QVQLVESGGGVVQPGRSLRLSCAASGIDLSDYYMTWVRQAPGKGLEYIGIIYASGNAYFASWAKGRFTISRDNSTNTVFLQMNSLRAEDTAVYYCARNIGGSSNLWGQGTLVTVSS
VL: ELQLTQTPSSLSASVGDRVTIKCQASERIYNNLAWYQQKPGKAPKLLFYSASTLASGVPSRFSGSGSGTDFTLTISSLQPEDFATYYCQCTGYGTTYGLVFGGGTKVEIK
notes: also called humanized CD5L-35Hu mAb (CD5L-35Hu-H2 + CD5L-35Hu-K2)

One experiment concerns the target T1, Human recombinant CD5L protein (Sino …). Briefly: titration ELISA, human CD5L coated on plate. The procedure:
FIG. 11. […] Bound antibody was detected using a secondary antibody against rabbit IgG conjugated with HRP and TMB substrate for detection of A450 nm. EC₅₀ was estimated using GraphPad software by applying a 4-parameter fitting to calculate binding affinity of the antibodies.
Binding constants (EC₅₀) of a panel of monoclonal antibodies were estimated by titration ELISA, and the data were analyzed using the 4-parameter curve fitting with GraphPad Prism program (Table 6).
For orientation: ELISA stands for enzyme-linked immunosorbent assay.
In the case of B1, the EC50 was determined as 0.21 µg/mL.

For B2, the EC50 was 0.19 µg/mL.

Regarding B3, the concentration giving a half-maximal response (EC50) came to 0.25 µg/mL.

Consider B4, for which the EC50 turned out to be 0.183 µg/mL.

Turning to B5, the concentration for a half-maximal effect (EC50) is 0.22 µg/mL.

In the case of B6, the EC50 turned out to be 0.116 µg/mL.

With B7, the EC50 amounted to 0.169 µg/mL.

As to B8, the half-maximal effective concentration (EC50) is 0.0788 µg/mL.

For the next experiment the target is unchanged. Briefly: BLI (Octet RED96), antibody on Protein A biosensors, CD5L-His in solution, global fit. The procedure: Kinetic binding parameters (KD, kon, and koff) in (Table 11) were determined using Octet RED96 instrument and binding curves are shown in FIG. 17. […] KDs are calculated using Octet software with global fitting model.
For B9, the Kd is under 0.001 nM, the dissociation rate constant (koff) was under 1e-07 s⁻¹ and the kon turned out to be 106000 M⁻¹ s⁻¹.

For the next experiment the target is unchanged. Briefly: BLI (Octet RED96), antibody on protein A biosensors, CD5L 0.1-200 nM in solution, 1:1 fit. Here is the method: All experiments were performed with shaking at 1,000 rpm. Background wavelength shifts were measured from reference biosensors that were loaded only with antibody. ForteBio's data analysis software was used to fit the data to a 1:1 binding model to extract an association rate and dissociation rate.
A general note: In BLI a coated tip is dipped into the sample, and binding shifts an interference pattern.
Turning to B1, the Kd is 1.74 nM.

For the molecule B2, the equilibrium dissociation constant (Kd) is 1.56 nM.

In the case of B3, the Kd was 28.7 nM.

As for B4, the Kd came to 2.18 nM.

Turning to B5, the dissociation constant Kd was determined as 1.35 nM.

Take B6: the Kd amounted to 1.72 nM.

As for B7, the Kd is 0.78 nM.

Regarding B8, the Kd turned out to be 2.97 nM.
